Measured values: article PMC6310021

Target: purified rat recombinant TG2 protein (transgelin-2) (rat) (UniProt Q5XFX0)
Test: SPR

Sequence of purified rat recombinant TG2 protein (transgelin-2) (rat) (Q5XFX0 whole entry): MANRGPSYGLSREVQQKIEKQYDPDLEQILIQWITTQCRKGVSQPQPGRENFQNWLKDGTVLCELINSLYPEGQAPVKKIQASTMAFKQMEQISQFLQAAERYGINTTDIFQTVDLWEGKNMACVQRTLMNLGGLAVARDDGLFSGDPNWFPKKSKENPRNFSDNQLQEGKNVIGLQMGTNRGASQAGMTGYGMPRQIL

Which Kd does the source give for “ezrin (analyte in Biacore surface plasmon resonance) (from UniProt P31977 1-586) (natural protein)” here?
The Kd was 73.3 nM.
